Experimental findings from US20050032185 are described below.

Data set [1] deals with GST-PKBα (full length human protein kinase Bα with N-terminal glutathione S-transferase, from unstimulated 293 cells) [GST: P08515].
In data set [2] the target is GST-ΔPH-PKBα (residues 118-479 of human PKBα, lacking the PH domain) (UniProt P31749).
Data set [3] has as its target HA-PKBα (haemagglutinin epitope-tagged human PKBα expressed in 293 cells) (UniProt P31749).

GST-PKBα (full length human protein kinase Bα with N-terminal glutathione S-transferase, from unstimulated 293 cells) [GST: P08515], sequence (P08515 whole entry, looked up, the tested form may be a part): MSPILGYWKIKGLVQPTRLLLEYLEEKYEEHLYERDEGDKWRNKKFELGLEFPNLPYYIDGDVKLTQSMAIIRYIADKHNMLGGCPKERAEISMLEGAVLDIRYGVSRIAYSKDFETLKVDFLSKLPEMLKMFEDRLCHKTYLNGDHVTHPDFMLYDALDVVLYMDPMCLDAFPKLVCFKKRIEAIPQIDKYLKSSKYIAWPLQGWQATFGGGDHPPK
GST-ΔPH-PKBα (residues 118-479 of human PKBα, lacking the PH domain), sequence (P31749 whole entry, looked up, stated change not applied, the tested form may be a part): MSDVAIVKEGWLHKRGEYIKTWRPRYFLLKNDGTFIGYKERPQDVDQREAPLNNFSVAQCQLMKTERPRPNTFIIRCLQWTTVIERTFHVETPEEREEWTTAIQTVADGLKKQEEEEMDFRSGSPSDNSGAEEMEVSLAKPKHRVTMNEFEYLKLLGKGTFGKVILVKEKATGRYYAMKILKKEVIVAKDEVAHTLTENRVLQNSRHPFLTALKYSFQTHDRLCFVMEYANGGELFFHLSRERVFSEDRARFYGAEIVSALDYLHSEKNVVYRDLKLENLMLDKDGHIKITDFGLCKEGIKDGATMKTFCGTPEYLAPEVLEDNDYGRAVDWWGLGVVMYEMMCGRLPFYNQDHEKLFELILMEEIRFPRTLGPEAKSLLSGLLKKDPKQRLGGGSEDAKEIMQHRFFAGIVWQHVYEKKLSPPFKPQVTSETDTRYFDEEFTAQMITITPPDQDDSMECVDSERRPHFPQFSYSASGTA
HA-PKBα (haemagglutinin epitope-tagged human PKBα expressed in 293 cells), sequence (P31749 whole entry, looked up): as the sequence (P31749 whole entry, looked up, stated change not applied, the tested form may be a part) above

As for “GST-D223A-PDK1 (full length catalytically inactive human PDK1, Asp223 changed to Ala)”, in data set [1], the “phosphorylation and activation of GST-PKBα” value is recorded as “did not phosphorylate or active GST-PKBα in the presence of PtdCho/PtdSer lipid vesicles containing PtdIns(3,4,5)P3 (data not shown)”.
Consider “GST-ΔPH-PDK1 (residues 1-450 of human PDK1, lacking the putative C-terminal PH domain)”, for which the “rate of activation of GST-PKBα by GST-ΔPH-PDK1 compared to full length wild-type GST-PDK1” value in data set [1] is reported as “the rate of activation was reduced about 30-fold compared to full length wild-type GST-PDK1”.
In the case of “PtdIns(3,4,5)P3-dependent protein kinase-1 (PDK1) purified from rabbit skeletal muscle”, in data set [1], the “fold increase in GST-PKBα activity with sn-1,2-dilinoleoyl D-PtdIns(3,4,5)P3” value was “causing a 36-fold increase in GST-PKBα activity”, the “fold increase in GST-PKBα activity with sn-1,2-dipalmitoyl PtdIns(3,4)P2 (lipid 7)” value is reported as “both inositol phospholipids increasing GST-PKBα activity about 6-fold”, the “fold increase in GST-PKBα activity with sn-1,2-dipalmitoyl PtdIns(3,4,5)P3 (lipid 6)” value was “both inositol phospholipids increasing GST-PKBα activity about 6-fold” and the “increase in GST-PKBα activity” value was “a >30-fold increase in activity”. Moreover, in data set [1], the “phosphorylation of GST-PKBα (mol 32P per mol protein)” value is recorded as “to a level approaching 0.7 moles of 32 P/mol protein”, the “phosphorylation of GST-PKBα (mol/mol) in the sample used for site mapping” value is reported as “phosphorylated to 0.4-0.6 mol/mol with PDK1”, the “specific activity of GST-PKBα reached after phosphorylation by PDK1” value is reported as “reached a specific activity of 80 U/mg” and the specific activity of PDK1 after Mono S (units of GST-PKBα activation per mg) came out at 69500 U/mg. The “specific activity towards GST-PKBα in the presence of PtdIns(3,4,5)P3” value in data set [1] is reported as “PDK1 purified from rabbit skeletal muscle (100 000 U/mg)”. Further, in data set [2], the “activation and phosphorylation of GST-ΔPH-PKBα” value was “also activated and phosphorylated GST-ΔPH-PKBα in a PtdIns(3,4,5)P3 independent manner (data not shown)”. The “phosphorylation of immunoprecipitated HA-PKB by PDK1” value in data set [3] is recorded as “immunoprecipitated HA-PKB was not phosphorylated effectively by PDK1”.
